Measured values published in paper PMC2199204.

Molecular target: DGKζ with a FLAG epitope tag at its COOH terminus (DGKζ-FLAG) (human)
Experiment: co-IP

DGKζ with a FLAG epitope tag at its COOH terminus (DGKζ-FLAG) (human), sequence (Q13574 whole entry): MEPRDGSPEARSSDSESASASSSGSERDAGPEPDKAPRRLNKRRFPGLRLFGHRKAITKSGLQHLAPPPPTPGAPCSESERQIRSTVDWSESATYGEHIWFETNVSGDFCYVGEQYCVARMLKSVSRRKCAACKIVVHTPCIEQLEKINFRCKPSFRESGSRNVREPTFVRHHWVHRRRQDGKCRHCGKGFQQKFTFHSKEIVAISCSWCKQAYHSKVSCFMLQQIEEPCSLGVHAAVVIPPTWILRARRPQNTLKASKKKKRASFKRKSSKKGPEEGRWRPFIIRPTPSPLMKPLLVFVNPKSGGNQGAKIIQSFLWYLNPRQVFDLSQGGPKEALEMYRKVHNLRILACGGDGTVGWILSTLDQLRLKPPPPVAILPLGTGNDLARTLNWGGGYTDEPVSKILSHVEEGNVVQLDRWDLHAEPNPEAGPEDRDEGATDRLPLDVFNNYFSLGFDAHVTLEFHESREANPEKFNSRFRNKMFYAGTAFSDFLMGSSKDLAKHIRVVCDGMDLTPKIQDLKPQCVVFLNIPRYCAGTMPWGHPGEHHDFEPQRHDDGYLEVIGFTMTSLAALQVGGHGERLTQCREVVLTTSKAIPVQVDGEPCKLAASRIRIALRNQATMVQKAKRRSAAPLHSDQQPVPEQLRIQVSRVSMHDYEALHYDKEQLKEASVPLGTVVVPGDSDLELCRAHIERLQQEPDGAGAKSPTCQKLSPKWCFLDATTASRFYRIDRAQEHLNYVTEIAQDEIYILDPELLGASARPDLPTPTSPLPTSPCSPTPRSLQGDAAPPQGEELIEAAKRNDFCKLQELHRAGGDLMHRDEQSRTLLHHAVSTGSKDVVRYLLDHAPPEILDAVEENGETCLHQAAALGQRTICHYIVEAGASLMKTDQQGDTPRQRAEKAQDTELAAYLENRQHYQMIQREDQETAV
RasGRP with an NH2-terminal HA epitope tag (HA-RasGRP), sequence (O95267 whole entry): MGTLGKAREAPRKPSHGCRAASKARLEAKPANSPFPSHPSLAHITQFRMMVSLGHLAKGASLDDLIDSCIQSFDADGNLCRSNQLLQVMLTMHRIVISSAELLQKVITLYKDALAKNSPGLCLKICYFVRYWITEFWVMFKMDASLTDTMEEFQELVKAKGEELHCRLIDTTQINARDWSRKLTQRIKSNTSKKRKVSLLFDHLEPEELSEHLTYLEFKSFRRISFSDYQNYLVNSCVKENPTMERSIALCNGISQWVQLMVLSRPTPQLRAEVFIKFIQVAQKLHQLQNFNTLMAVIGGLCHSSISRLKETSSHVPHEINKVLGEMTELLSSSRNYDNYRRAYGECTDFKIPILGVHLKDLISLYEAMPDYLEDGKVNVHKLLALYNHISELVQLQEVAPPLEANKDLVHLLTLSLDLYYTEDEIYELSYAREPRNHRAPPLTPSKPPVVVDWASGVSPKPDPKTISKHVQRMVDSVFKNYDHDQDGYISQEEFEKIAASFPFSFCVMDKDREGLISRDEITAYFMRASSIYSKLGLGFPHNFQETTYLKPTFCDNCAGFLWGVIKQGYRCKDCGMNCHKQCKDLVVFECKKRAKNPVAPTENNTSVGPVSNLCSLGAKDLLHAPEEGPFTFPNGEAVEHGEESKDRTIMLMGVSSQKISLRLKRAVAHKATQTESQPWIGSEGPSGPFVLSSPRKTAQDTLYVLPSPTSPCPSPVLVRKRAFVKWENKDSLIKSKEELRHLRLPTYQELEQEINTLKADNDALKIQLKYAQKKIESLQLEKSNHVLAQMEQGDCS

| percent coprecipitated [%] | Substance |
| --- | --- |
| > 20 | RasGRP with an NH2-terminal HA epitope tag (HA-RasGRP) (from UniProt O95267 1-797) (natural protein) |
| > 20 | A15-H-Ras (from UniProt P01112 1-189) (natural protein) |
